# Measured values taken from IntAct's records for PubMed 15895076.
# B1: Dynamin-2 (Rattus norvegicus (Rat)), P39052 (parent)
# chain: MGNRGMEELIPLVNKLQDAFSSIGQSCHLDLPQIAVVGGQSAGKSSVLENFVGRDFLPRGSGIVTRRPLILQLIFSKTEYAEFLHCKSKKFTDFDEVRQEIEAETDRVTGTNKGISPVPINLRVYSPHVLNLTLIDLPGITKVPVGDQPPDIEYQIKDMILQFISRESSLILAVTPANMDLANSDALKLAKEVDPQGLRTIGVITKLDLMDEGTDARDVLENKLLPLRRGYIGVVNRSQKDIEGRKDIRAALAAERKFFLSHPAYRHMADRMGTPHLQKTLNQQLTNHIRESLPTLRSKLQSQLLSLEKEVEEYKNFRPDDPTRKTKALLQMVQQFGVDFEKRIEGSGDQVDTLELSGGARINRIFHERFPFELVKMEFDEKDLRREISYAIKNIHGVRTGLFTPDLAFEAIVKKQVVKLKEPCLKCVDLVIQELISTVRQCTSKLSSYPRLREETERIVTTYIREREGRTKDQILLLIDIEQSYINTNHEDFIGFANAQQRSTQLNKKRAIPNQGEILVIRRGWLTINNISLMKGGSKEYWFVLTAESLSWYKDEEEKEKKYMLPLDNLKIRDVEKGFMSNKHVFAIFNTEQRNVYKDLRQIELACDSQEDVDSWKASFLRAGVYPEKDQAENEDGAQENTFSMDPQLERQVETIRNLVDSYVAIINKSIRDLMPKTIMHLMINNTKAFIHHELLAYLYSSADQSSLMEESAEQAQRRDDMLRMYHALKEALNIIGDISTSTVSTPVPPPVDDTWLQNTSSHSPTPQRRPVSSVHPPGRPPAVRGPTPGPPLIPMPVGATSSFSAPPIPSRPGPQNVFANNDPFSAPPQIPSRPARIPPGIPPGVPSRRAPAAPSRPTIIRPAEPSLLD
# B2: Focal adhesion kinase 1 (Homo sapiens), Q05397 (parent)
# chain: MAAAYLDPNLNHTPNSSTKTHLGTGMERSPGAMERVLKVFHYFESNSEPTTWASIIRHGDATDVRGIIQKIVDSHKVKHVACYGFRLSHLRSEEVHWLHVDMGVSSVREKYELAHPPEEWKYELRIRYLPKGFLNQFTEDKPTLNFFYQQVKSDYMLEIADQVDQEIALKLGCLEIRRSYWEMRGNALEKKSNYEVLEKDVGLKRFFPKSLLDSVKAKTLRKLIQQTFRQFANLNREESILKFFEILSPVYRFDKECFKCALGSSWIISVELAIGPEEGISYLTDKGCNPTHLADFTQVQTIQYSNSEDKDRKGMLQLKIAGAPEPLTVTAPSLTIAENMADLIDGYCRLVNGTSQSFIIRPQKEGERALPSIPKLANSEKQGMRTHAVSVSETDDYAEIIDEEDTYTMPSTRDYEIQRERIELGRCIGEGQFGDVHQGIYMSPENPALAVAIKTCKNCTSDSVREKFLQEALTMRQFDHPHIVKLIGVITENPVWIIMELCTLGELRSFLQVRKYSLDLASLILYAYQLSTALAYLESKRFVHRDIAARNVLVSSNDCVKLGDFGLSRYMEDSTYYKASKGKLPIKWMAPESINFRRFTSASDVWMFGVCMWEILMHGVKPFQGVKNNDVIGRIENGERLPMPPNCPPTLYSLMTKCWAYDPSRRPRFTELKAQLSTILEEEKAQQEERMRMESRRQATVSWDSGGSDEAPPKPSRPGYPSPRSSEGFYPSPQHMVQTNHYQVSGYPGSHGITAMAGSIYPGQASLLDQTDSWNHRPQEIAMWQPNVEDSTVLDLRGIGQVLPTHLMEERLIRQQQEMEEDQRWLEKEERFLKPDVRLSRGSIDREDGSLQGPIGNQHIYQPVGKPDPAAPPKKPPRPGAPGHLGSLASLSSPADSYNEGVKLQPQEISPPPTANLDRSNDKVYENVTGLVKAVIEMSSKIQPAPPEEYVPMVKEVGLALRTLLATVDETIPLLPASTHREIEMAQKLLNSDLGELINKMKLAQQYVMTSLQQEYKKQMLTAAHALAVDAKNLLDVIDQARLKMLGQTRPH
# partner: B1 chain
# Variants of: B1
# Details: with fak1_mouse Ptk2, P34152
row,Variant,effect of a mutation on the interaction
1,K44E,increasing interaction

# Variants of: B2
# Details: with dyn2_rat Dnm2, P39052
row,Variant,effect of a mutation on the interaction
1,Y925F,disrupting interaction
